# Data: US6641997B1, “Assays for screening compounds which interact with cation channel proteins, mutant prokaryotic cation channel proteins, and uses thereof” (The Rockefeller University, priority 1998, dated 2003)
# Assays:
# [1] = biological target: T1, mutant kcsa K+ channel (Q58A, T61S, R64D) (Streptomyces lividans, UniProt P0A334, P2A/Q58A/R64D/T61S); assay: Competition binding assay: unlabeled toxin against labeled Agitoxin2 on mutant kcsa K+ channel resin; details: for Kd: labeled toxin 0.06 μM, Kdhot 0.62 μM, FIG. 11B, read-out: competing toxin dissociation constant Kdcold; for decrease of affinity caused by the toxin mutation: relative to wild type agitoxin2
# T1 construct: made in house; host or cells: E. coli XL-1 Blue
# T1 sequence (P0A334 1-158 P2A/Q58A/T61S/R64D limits assumed): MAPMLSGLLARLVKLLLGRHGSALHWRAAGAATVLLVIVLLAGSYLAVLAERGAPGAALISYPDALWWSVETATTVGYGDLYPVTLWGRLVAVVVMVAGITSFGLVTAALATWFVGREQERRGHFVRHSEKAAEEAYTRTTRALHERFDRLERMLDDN
# Source text: (§1) Three mutations (Q58A, T61S, R64D) were introduced into the kcsa K^+ channel gene to modify its pore region sequence using PCR mutagenesis and confirmed by DNA sequencing. The gene also contained a mutation at the second residue (P2A) to introduce an ncol restriction endonuclease site and it was lacking the last two carboxyl terminal residues (both Arg) to avoid proteolysis during the protein preparation. This gene was cloned into the pQE60 vector for expression with a carboxyl terminal thrombin and hexahistidine fusion. Channel protein was expressed in XL-1 Blue strain of E. coli (Stratagene) by induction with […] at a concentration of 1.0 mM. Three hours following induction bacteria were sonicated in 50 mM Tris buffer (7.5), 100 mM KCl, 10 mM Mg2SO4, 25 mg DNAse 1, 250 mM sucrose, in addition to pepstatin, leupeptin, and PMSF. The channel was extracted in the same solution containing 40 mM decylmaltoside (Anatrace) at room temperature. Following centrifugation the supernatant was bound to cobalt resin (Talon) at a protein to resin ratio that will saturate the resin. The resin was washed, and detergent concentration was lowered to 10.0 mM. One mL columns were prepared. The control resin (no channel) was handled in the same manner. The resin preparation was the same for mass spectrometry and binding studies.
# (§2) Wild type and mutant agitoxin2 were prepared (10). Tritiated N-ethylmaleimide (NEN Life Sciences) was conjugated to agitoxin2 D20C (14). Binding was performed in a 300 μL volume containing 50 mM Tris (7.5), 100 mM KCl, 10 mM declymaltoside, and 0.3 μL of cobalt resin saturated with the mutant kcsa K^+ channel for 30 minutes at room temperature. Following brief centrifugation the supernatant was removed, resin was applied to a filter, rinsed briefly with ice cold buffer, and then counted in a scintillation counter. All binding measurements were made with a paired control containing a saturating concentration (200 times KD) of unlabeled wild type agitoxin2 to determine nonspecific binding. The competition assay was carried out under the same conditions. Labeled Agitoxin2 at 0.06 μM was always present and unlabeled toxin was added to compete with bound labeled toxin.
# as §2, with “17. Wild” for “Wild”, “Kd)” for “KD)”
# [2] = biological target: T1, mutant kcsa K+ channel (Q58A, T61S, R64D); assay: Mutant kcsa K+ channel cobalt column screen of scorpion venom, eluate analysed by MALDI-TOF mass spectrometry; assay type: binding; details: 40 mg Leiurus quinquestriatus hebraeus venom on 1 mL column, imidazole elution
# Source text: FIG. 10. Mass Spectra of scorpion toxins before and after channel column purification MALDI-TOF mass spectra of venom before purification (A) and after elution from a cobalt column in the absence (B) and presence (C) of attached mutant kesa K^+ channel. The accuracy of the mass measurements (±0.3 Da) permitted identification of most of the major peaks in the mass spectra searched from databases of known toxins of the Leiurus quinquestratus hebraeus scorpion (D). The kesa-binding component labeled * could not be assigned to a known scorpion toxin. The component labeled X (4193.0 Da) binds nonspecifically to the column and was not identified. MALDI_MS was performed with the MALDI matrix 4-hydroxy-α-cyano-cinnamic acid (16 of Example II).
# as §1, with “Following centrifugation the supernatant was bound to cobalt resin (Talon) at a protein to resin ratio that will saturate the resin. The resin was washed, and detergent concentration was lowered to 10.0 mM. One mL columns were prepared. The control resin (no channel) was handled in the same manner. The resin preparation was the same for mass spectrometry and binding studies.” left out
# Guided by knowledge of the toxin receptor on the Shaker K^+ channel, set forth in SEQ ID NO:4, three point mutations were introduced into the kcsa K^+ channel (SEQ ID NO: 1) that should render it sensitive to scorpion toxins (FIG. 9). […] The eluate was analyzed with MALDI-TOF mass spectrometry, focusing on the low mass range appropriate for scorpion toxins (about 4000 Da). […]
Substance,Kd [1] [µM],decrease of affinity caused by the toxin mutation [1] [fold],binding to the channel column (mass peak in the eluate) [2]
"K27A: Agitoxin2 mutant, Lys 27 substituted by alanine",81,130,
"N30A: Agitoxin2 mutant, Asn 30 substituted by alanine",27,45,
agitoxin2,0.62,,dramatic enhancement of specific peaks
charybdotoxin,,,dramatic enhancement of specific peaks
chlorotoxin,,,did not bind
